What was measured:
CD4 [1] = target: CD4 (UniProt P01730); assay: Biacore CD4 binding, lot comparison (reference material)
CD4 [2] = target: CD4 (UniProt P01730); assay: Biacore CD4 binding, lot comparison (clinical trial material)

Substance: TV1.C gp120
- CD4 binding (Biacore) % (CD4 [1]): 91%
- CD4 binding (Biacore) % (CD4 [2]): 98%

Substance: 1086.C gp120
- CD4 binding (Biacore) % (CD4 [1]): 100%
- CD4 binding (Biacore) % (CD4 [2]): 87%
